Test results taken from patent publication US11192948B2, “Compositions and methods for inhibiting cancer stem cells” (MedImmune Limited, priority 2015, dated 2021).

Columns and labels:
Pan02.13 cells [1] = assay: Pan02.13 cell growth under standard tissue culture conditions; type: cell-based; conditions: 100 ng/mL; P<0.001
From the text: (§1) Given that chemotherapies and even some targeted therapies can enrich for CSCs despite the reductions in tumor burden, combination approaches using a CSC-specific targeted therapy in combination with these agents becomes an attractive approach to treatment of cancer patients. Since LX5140110 targets CSCs specifically, we sought to address the combined effects of the current standard of care chemotherapy for pancreatic cancer, gemcitabine, and LX5140110. First the ability of gemcitabine to inhibit the Pan02.13 was tested. Pan02.13 cells were plated under standard tissue culture conditions with and without 100 ng/mL gemcitabine in a tissue culture coated flat-bottomed plate (n=10). […] To determine the effects of treatments on CSCs, Pan02.13 was treated in standard tissue culture conditions for 4 days with either 50 μg/mL of LX5140110 or a control antibody and with or without 100 ng/mL of gemcitabine (GEM) then analyzed for the percentage of CSCs by flow cytometry. The percentage of CSCs (EpCAM+CD24+CD44+) was determined for each treatment condition. The cells were first gated for single, viable cells using scatter and DAPI. Fluorescence minus one (FMO) controls were utilized for gating, with the EpCAM+population analyzed for CD44 and CD24 expression.

Pan02.13 cells [2] = assay: Percentage of CSCs (EpCAM+CD24+CD44+) in Pan02.13 by flow cytometry; type: cell-based; conditions: 4 days; for effect of single agent on percentage of CSCs: LX5140110 50 μg/mL or gemcitabine 100 ng/mL
From the text: as §1

Cytivia cardiomyocytes = assay: Doxorubicin-mediated cardiomyocyte damage (calcium, viability imaging); type: cell-based
Method: Next, we sought to determine if inhibiting LOX1 could block doxorubicin-mediated cardiomyocyte damage. Cytivia™ cardiomyocytes were purchased from GE Healthcare and plated following manufacturer's instructions with the substitution of bovine fibronectin for human fibronectin. Cells were allowed to adhere for 4 days and then medium was changed. At days 5-7, medium was removed and cells were pre-incubated with the indicated concentration of LX5140110 for 4 hours prior to the addition of 5 μM doxorubicin (DOX). After addition of DOX, cells were incubated for a further 24 hours. After incubation, media was removed and cells were stained with DAPI (1:4000 dilution of 1 mg/mL), TOTO-3 (1 uL of dye solution per 1 mL of medium), and 5 μM Fluo-4. Cells were incubated for 1 hour at 37° C. and then imaged on Image on GE IN Cell Analyzer. Viability was determined by obtaining the number of cells excluding DAPI and TOTO-3 dyes while Fluo-4 was used to determine calcium concentrations. It is known that cardiomyocytes show an increase in calcium load during endotoxin induced cardiac dysfunction. (Thompson et al., Pediatric Research (2000) 47: 669-676).

[3] = system: PA-0143 pancreatic PDX CSCs; assay: Tumor sphere formation of pancreatic PDX model PA-0143; type: cell-based, human; conditions: compared to STEM0268
Method: DARPins showing the preferred binding patterns were screened for their ability to inhibit sphere formation using one of the pancreatic PDX models (PA-0143) used for selections. Briefly, following dissociation of the tumor cells they were plated in 96-well ultra-low attachment plates containing MSCGM with 50 ug/mL DARPins. All DARPins were tested in triplicate. After 4 days plates were read and inhibitory molecules were identified as showing inhibitory activity at least 1 standard deviation (SD) from the mean of the untreated and control DARPin-treated wells. A second assay based on expression of EZH2 in CSCs was also run. We have previously shown in pancreatic cancer that CSCs can be identified based on their high expression of EZH2 and trimethylation of histone 3 on lysine 27 (Van Vlerken L et al. 2013 EZH2 is required for breast and pancreatic cancer stem cell maintenance and can be used as a functional cancer stem cell reporter Stem Cells Transl Med 2(1):43-52). Using HPAC cells, the EZH2 assay was performed as previously described with the inclusion of 50 μg/mL DARPin. […]
STEM0268 inhibits cancer stem cells. […] Briefly, cells were dissociated using 200 units/mL of collagenase IV plated, washed counted and resuspended at 30,000 cells/mL in MSCGM (Lonza) and plated in an ultra-low attachment 6-well plate. […]

[4] = system: PA-0165 pancreatic PDX CSCs; assay: Tumor sphere formation of pancreatic PDX model PA-0165; type: cell-based, human; conditions: compared to STEM0268
Method: STEM0268 inhibits cancer stem cells. […] Briefly, cells were dissociated using 200 units/mL of collagenase IV plated, washed counted and resuspended at 30,000 cells/mL in MSCGM (Lonza) and plated in an ultra-low attachment 6-well plate. Antibodies were added to appropriate wells at 50 μg/mL. Following incubation for 4 days, spheres were harvested, dissociated and replated in a similar manner to generate secondary spheres and assess the ability of CSCs to self-renew. […] Salinomycin (1 μM) served as the positive control in both of these experiments (Gupta P B et al. 2009).

pancreatic cell lines = assay: Inhibition of CSCs in pancreatic cell lines; type: cell-based; conditions: multiple pancreatic cell lines
From the text: To further confirm the ability of a LOX1 inhibitor to inhibit CSC sphere formation, a LOX1-specific monoclonal antibody (mAb), LX5140110, which comprises a VL comprising SEQ ID NO: 33 and a VH comprising SEQ ID NO: 4 (see, e.g., Table 1), was compared to STEM0268 for their ability to inhibit sphere formation in the pancreatic PDX models.

colorectal cell lines = assay: Inhibition of CSCs in colorectal cell lines; type: cell-based
PA-0143 PDX tumors = assay: In vivo study with PA-0143 PDX tumors; design: species or system NSG mice
Method: An in vivo study with PA-0143, was run to determine the ability of LX5140110 to inhibit CSCs in vivo. PA-0143 PDX tumors were passaged by trocar implantation of tumor fragments into 6-8 week old NSG mice (NOD.Cg-Prkdc^scid Il2rg^tmIWjl/SzJ) and allowed to grow to −300 mm^3 at which point they were randomized and treated with subcutaneous injections of either a control IgG1 mAb or LX5140110 at 30 mg/kg twice-weekly for 2 weeks (FIG. 8A). […] Twenty-four hours after the last dose of antibodies, tumors were removed from a subset of the mice and analyzed for the percentage of CSCs.

[5] = 50 μg/mL with 100 ng/mL gemcitabine
[6] = 4 hours pre-incubation before 5 μM DOX

Molecule	cell numbers (Pan02.13 cells [1])	effect of single agent on percentage of CSCs (Pan02.13 cells [2])	viability of cardiomyocytes (Cytivia cardiomyocytes; 5 μM DOX, 24 hours)	increase of calcium concentration (Cytivia cardiomyocytes; 5 μM DOX, 24 hours, compared to untreated controls)	inhibition of sphere formation (in words) [3]	inhibition of sphere formation (in words) [4]	inhibition of CSCs (pancreatic cell lines)	inhibition of CSCs (colorectal cell lines)	tumor growth (PA-0143 PDX tumors; 30 mg/kg subcutaneous twice-weekly for 2 weeks, vs vehicle and control IgG1, P<0.001)	percentage of CSCs in tumors (PA-0143 PDX tumors; 24 hours after last dose, compared to vehicle control)	effect on gemcitabine-induced enrichment of CSCs (Pan02.13 cells [2]; [5])	percentage of CSCs of viable cells (Pan02.13 cells [2]; [5])	effect on DOX-induced accumulation of calcium (Cytivia cardiomyocytes; [6])	effect on DOX-induced decrease of viability (Cytivia cardiomyocytes; [6])
Nc1ccn([C@@H]2O[C@H](CO)[C@@H](O)C2(F)F)c(=O)n1 [gemcitabine, reference compound]	significant reduction in cell numbers	enriched for CSCs	–	–	–	–	–	–	–	–	–	–	–	–
COc1cccc2c1C(=O)c1c(O)c3c(c(O)c1C2=O)C[C@@](O)(C(=O)CO)C[C@@H]3O[C@H]1C[C@H](N)[C@H](O)[C@H](C)O1 [DOX, doxorubicin, reference compound]	–	–	decreased viability	approximately 2.5 fold	–	–	–	–	–	–	–	–	–	–
LX5140110: LOX1-specific monoclonal antibody; VH SEQ ID NO: 4, VL SEQ ID NO: 33 (antibody, V domains shown, LX5140110 Heavy Chain sequence; LX5140110 Light Chain sequence) VH: QVQLVQSGAEVKKPGASVKVSCKVSGYTLTELSMHWVRQAPGKGLEWMGGFDPEDFKYHTHQKFQGRVTMTEDTSTDTAYMELSSLRSEDTAVYYCALVWGTQGKGVRGWDYYYGMDVWGQGTTVTVSS VL: QSVVTQPPSVSGAPGQRVTISCTGSSSNIGAGYDVHWYQQLPGTAPKLLIYGNSNRPSGVPDRFSGSKSGTSASLAITGLQAEDEADYYCQSYDSSLSGWVFGGGTKLTVL	–	slight reduction of CSCs	–	–	inhibited sphere formation	inhibited sphere formation	able to inhibit CSCs	able to inhibit CSCs	only slightly reduced tumor growth	significant reduction of CSCs	inhibited this increase	0.62%	able to inhibit the accumulation of calcium	reversed
